Test results taken from the DeepSol protein solubility set.

Test: soluble on expression in E. coli; label from the status in PepcDB or PDB records
In the case of “MDYQLYTLPSGLHVVYKPHAGEVTYAGFAIGVGTRHESSRHHGLAHLTEHMLFKGTSLRNSLQIIRRMEEVGAELNAFTEKESTYVYCIFPKAHFNRATNLLFDIVQHSRFPEEELTKEKTVVIDEIDSYRDNPSELIFDEFENILFRHHPLGHNILGTEASVSRITGQIGRNFLRRHYRPDNMIFFLAGEADLSDWPLNPAEKVSIRNTDGTPLHTLREGFLPRTIRRHKDTYQHHILMGGPAYSLHDDRRIPLSLLNNILGGPGMNSRLNLSLREEHGYVYNVESNYTPYSDTGVFNIYLGCAPRYAEAAMELVRKELRYLIEHPLSPIELESAKRQFKGQLIVSADNKESTFLSLGKSMLLYGKYDPLSDIFHRIDAITSDRLREIAAEVLNPDSMLTLIYC”, the “soluble on expression in E. coli” value is reported as “not soluble”.
With “MEAEEIIGLLKKGDLEKAKDALSKEIDNLSDEELKEILEVAESVAKEKEDIELLKLVVYYYAEFFGIDKLEEFEGIAKEKGYEGLMHLADLYSLLGYPEKALDIYRELLKTDLIKEKEHIGEIYYGIATIHDELQEYDKALEAINEAVKAFKESNNVEKLHQAEVYRAYITFENGDRDKAKEILAGLLPHVTNREIKAQIHLVFKEIFEDEENYEAAIQESLYSLIEGIDTEVFDLAFDGLIDLIWELILEDKFEEIYKSMPMFKVAIPSLKDFFEGVRRIAMYREGKIGREEVSEILMKVKDERLVSILEFLGEAEV” the “soluble on expression in E. coli” value was “soluble”.
For “MEAGLDQSEIDERCECLKEVATSPAGRVLATDKQLDNLEQFISLVPGYIEKVRSHRVAVKAEEKRKAEEKRRQEEKEEEARKAREKQIEEERKAKEEQRANEERAKEERDRRALEVIVPPRQNSANSNINASVAFITNRLEMGSFSENNETVDRTIDTTATTVLSASSNAAQVDFVSFIKNSGEYLMVRKKKFPVDELVNNEKLGYPLGVTYDEKSKYWIICDRNLNKVLLMNVAESDVRVFEGPHLRNPTAVAVFEKGKSVVILCAPGNNQHVIYIYDFVDEIMHQFASHSDPLYNMKSQLRGLAISLGGNVLSLECSHAAAPKRLRIFKRDVGGKGFDIMGAKTPSFIASHNSKVAISDLGNNTVLIGNLIDTDWNKMSFSVLRIIETTQDLTLDQLANNNGFKFVSGMQFDTYGHLLIGDAKGHTIKLYDTDYKFLHRISSDFPLPYMSSFHISSSGEGIILDVHAQQKLHWVKMESIENITPWKAPPYQPKQSRENYQNRRF”, the “soluble on expression in E. coli” value was “not soluble”.
With “MEANKREIVDFGGLRSYFFPNLAHYITKNDEELFNNTSQANKLAAFVLGASKDAPGDEDILEMILPNDANAAVIAAGMDVCLLLGDKFRPKFDAAAEKLSGLGHAHDLVSVIDDDKKLGMLARKAKLKKTEDAKILQALLKVIAIDDAAEKFVELTELVSQLDLDFDVYVLTKILGLISEETSDEVDIIRDNVVNAFDSCKPLLKQLMLDGPKSEPADPFISLLMDPLEESVGKVVNHIAQLFEEASKNEGDESLVLRSQLGYQLFFLIVRSLADGKREVSKKILSGIPTSVRAEVFPGLQRSVYKSAVFLGNHIIQVLLGSKKSFEDWDVVGVAKDLESAWKRRAIAELIKKFQVSILEQCFDKPVPLIPQSPLNNDAVIDNVNKALQFALWLTEFYGSENETEALGELRFLDSTSKNLLVDSFKKFVQGINSKTHVTRIVESLEKCCLSDTPSGRKSNVQPSTSQQQDSAYTKEEMTTVHNTYSVNTKAQVLNGLSDTNSSGLLVDSKDSLSLQEISCDEVDSSTLLSSSRNIGEGVTVKAVDPVPEKVNDAQQQQTVNEIEMASDANQDTSSSASPEVAPSFSTDGWDSPTKSVALPPGMQQIDEEETTVADKDSTPQPQARAETAWGSGDATPMPLPAPTNQYKVSGFGEAKVAKGFGQFAPTSSAYGGGGGRGGYGGGDRGGRGGYGGDRGGRGGYGGGDRGGRGGYGGDRGRGGYGGRGGRGGF” the “soluble on expression in E. coli” value was “not soluble”.
For “MEANMKKVIGAATATVFGLGAFTTTATAETIVTADVLNVREKPTTESKVVEKVKNGQELKVINTEDGWSKIELNGKEVFVSSEFTKDVYHVTANLLNVRTEANTDSEILGRLKKDDVIESTHQVKDGWLQFEYKGKTAYANVSFLSSTAPTEKKTEEKTKQVAKVQKSVKEKKEVKTQKVAKAKETTKAQEIVKPKEEAKVVKVKEEEKAQEIVKPKEEAKIKEEVKVKEEVKVKEEEKAQEIAKAKEEAKIKEEVKVKEEEKAQEIVKAKEEVKAKEEEKAQEIVKAKEEVKVKEEVKAKEIAKAKEEEKAREIAKAKEEEKAKEIAKAKEEEKAREIAKAKEEEKAREIAKAKEEEKAREIAKAKEEEKAREIAKAKEEERAKEASKNNIQSAKRELTVVATAYTADPSENGTYGGRVLTAMGHDLTANPNMRIIAVDPKVIPLGSKVWVEGYGEAIAGDTGSAIKGNRIDVLMGSKSKAMNWGRQTVKVKILLEHHHHHH”, the “soluble on expression in E. coli” value was “not soluble”.
For “MEAPLYPDLPPDLCAPRGGQPAFWVGPRHLAGDDGRLYDVVADALAGLGWTSLTIVRGRHEPDEEPEDRQVLRSTVLHISPDALRWAQWCAADEPFHLGGLPIAWQISVRAEVSSPLAQWSAYFTRDVPGEAVVDFLVALDASNQPAVSLAGAELVLDAVAAHGWFRDIDQPEAVATDPAFTSHISLGEVPPLIQDGDLRVLSAEDDETGPDGWQAWAEPVLGAPLLWVASFAASVPHDLVAAFAASLSSTAPVLRRVLPEATHERLLRAPAILEHHHHHH”, the “soluble on expression in E. coli” value was “not soluble”.
With “MEARFAELLAAYCLEAQSGETVLVEAETPALPLLPHLKRALLRRGAYPLIRLSYPGEERDFLLFGGRWLEEVPEAELALYQRADKFLRVLSAENPLEAAAVDPALALRRQRAWRLLQEIRLGKRWALTLYPTVGYAVGAGMGTEEFRAYLERALFLDREDPVAAWQELSRFQEGLIRRLSAAKELRILAPGTDLRLSVAGRTWVNSDGRRNMPSGEVFTGPVEDSAEGEVRFNLPAFVGGRRVKGVYLRFARGQVVKARAKAGKAYLQAALATDEGARRLGEVGIGTNFALDRPTGLVLLDEKMGGTVHLALGRSYPEAGGRNESALHWDLVLSLREGRLLLDGTPLLEAGRFL” the “soluble on expression in E. coli” value was “soluble”.
In the case of “MEAVAEHDFQAGSPDELSFKRGNTLKVLNKDEDPHWYKAELDGNEGFIPSNYIRMTECNWYLGKITRNDAEVLLKKPTVRDGHFLVRQCESSPGEFSISVRFQDSVQHFKVLRDQNGKYYLWAVKFNSLNELVAYHRTASVSRTHTILLSDMNVETKFVQALFDFNPQESGELAFKRGDVITLINKDDPNWWEGQLNNRRGIFPSNYVCPYNSNKSNSNVAPGFNFGN”, the “soluble on expression in E. coli” value is reported as “not soluble”.
With “MEDFKSGDLILGYYKVLEKLGEGNFGKVYKVEALKGRYKGKVFALKVASNPYSVHYLWKEAQTLILFHHQNIVSLQSYLYKKDKKELYLIYEYMDFGTLKDYVEKKGKLSPEEALKVLRHVVNALEYLHSRGYIHSDLKPENVFGKRVLGGVLWKLGDFSLVRIRGDVSIIDVKGTIGFIAPEIFRGEIHRSSDIYSLGCLTLYMLTGKVPFEGKDFKERKEKNKRGEVEIPEEIPGKLKDLLERMLEVDYKRRFRTARELKEYMVKEGLI” the “soluble on expression in E. coli” value was “soluble”.
For “MEDLQLQVTMRDFLDALTEVEPSATREFAMEIPTATWEDIGGLEKIKERLQAMVEWPLRYPELFQQFGLQTPKGILLSGPPGTGKTLVAKALARESGINFIPVNSSLLFSHWWGEAEKTLHEVFRKARQASPCLLFFDELDALVPARKAGEGSSIGSRLVSQFLMELDGLEELREVIVLGATNRIDMIDPAVLRPGRFDQILEFPYPDQAARKEIFQIYLRNRPVDPGINLDSLAGAAEGLVGSEIEALCKRAALLAVSEVINHKGAGAYIKTCHLEQALAEIQAEKQQARTGAENHTLRPVWNNVVPGAISQVGRLEHHHHHH”, the “soluble on expression in E. coli” value was “soluble”.
In the case of “MEEARLLVTCPDRPGIVAAVSGFLYAHGANITDLQQHSTDPEGGTFFMRVAFTASHLDLARPALERAFQEVVASRFQMQWRLAYASERKRTAILVSKPAHALLELLWRYRVGELPMELRLVISNHPDHREEVERFGIPYHHVPVEKGRKEEAEERILALLEAEGVELVVLARYMQILSPGFVERFPMRIINIHHSFLPAFAGADPYRQAYERGVKLIGATAHYVTEELDQGPIIEQDVVRVSHRHSVREMKRLGRELERTVLARAVRWHLEDRILVHENRTVVFV”, the “soluble on expression in E. coli” value is reported as “soluble”.
For “MEEELQHSHCVNCVSRRCMTRPEPGISCDLIGCPLVCGAVFHSCKADEHRLLCPFERVPCLNSDFGCPFTMARNKVAEHLEMCPASV”, the “soluble on expression in E. coli” value was “soluble”.
With “MEEEQLLDYEEEQEEIQDKQPEVGGGDARKTKGTYASIHSSGFRDFLLKPEILRAIGDCGFEHPSEVQHECIPQAILGMDVVCQAKSGMGKTAVFVITTLQQLEPVDGEVSVVCMCHTRELAFQISKEYERFSKYLPGVKVAVFFGGMAIKKDEERLANDCPHIVVGTPGRMLALARSGKLKLDKVKYFVLDECDKMIGDADMRRDVQEIVKMTPQQKQVMMFSATLPKELRTVCKRFMQDPMEVYVDDEAKLTLHGLQQHYVKLKEAEKNRRLLNLLDALEFNQVVIFVKAVKRCEALHQLLTEQNFPSIAIHRQMAQEERLSRYQAFKDFQKRILVATDLFGRGMDIERVNIVFNYDMPEDSDSYLHRVARAGRFGTKGLAITFVSDENDAKTLNSVQDRFDISITELPEKIDVSTYIEGRTN” the “soluble on expression in E. coli” value was “not soluble”.
In the case of “MEEHPKILSIAGSDSCAGAGMQADLKTAMSLGCHCCTILVVLTAQNTKEVKSIIEVDEKFIVEQLDAIFTDITIEVVKLGVLYSKKIISLIHNYITNINKMREKKLLVVFDPVFVSSSGCMLVENLDYVKYALDLICPLSCIITPNFYECKVILEALNFNIDINNMRTSDLCKLVTEKLNINACLFKSCNIDINTEDENKLYAVDHLCIKNDNDYDTKIKQNISYDVYKLKSKRNPQKDIHGTGCTLSTAISCFLSKKYDIIQACIESKKYIYNCINYAYDLGSKSQGLNHLKAAQHLTDFRELQVIKVD”, the “soluble on expression in E. coli” value is reported as “not soluble”.
For “MEENSIKIHKWLYPASWLYGAGVALRNKLFDWGKLQSKSFNVPIICIGNIAVGGTGKTPHTEYLIKLLHDEFQVAVLSRGYKRHTKGFVLSTAESDARSIGDEPYQIQSKFSDIRVAVDEDRCHGIERLLTLKEPPVEVILLDDAFQHRYVKAGLNILLTDYHRLFCDDTLMPAGRLRESAQGKNRAQIVIVTKCPPDIKPIDYNIITKRLNLFPYQQLYFSSFRYGNLRAVFPDCATVQERKLSSLQTEEQILLITGIASPDTIIRELEIHTRNIDLLAFSDHHNFSQRDLAQIKERFGKLRKGQRLIVTTEKDATRLICHQELDEGLKPFIYALPIEVEILQNQQDNFNQHIIGYVRENTRNGSLPERKDAHKSLEHHHHHH”, the “soluble on expression in E. coli” value was “soluble”.
With “MEENTKEMIVIDSVDRYNEIFGLETRHPLVSIIDLAKSTTWPTRAWFRYEVYALYLKNVKCGDIKYGRQYYDYQDGTIVCFAPGQITDLEMLPNIQPNAHGILFHPDLIRGTALGQEIKKYSFFSYETNEALHISEEERQTVMDCLQKITIELEHSIDKHSRRLICANIGLLLDYCMRFYERQFDTRNGVNKDIIVRFEHLLNEYFEGDAPQNQGLPSVKYFADKVFLSANYFGD” the “soluble on expression in E. coli” value was “not soluble”.
In the case of “MEESINQNPEAMEALISNLFGNISSLKSAYIELQSAHTPYDPEKIQAADKVVISELKNLSEMKHFYRENNPKPVCVSPQDSRLAAEIQEQQSLLKTYEVMVKKFQSEIQNKDSEITQMLQKIEEANQKRLKLEKNLKLRGMSTNQGSGGDGNLQFPDLTTELFVSTYEAAAKVVHDFSKPLINMMKAAGWDLDTAANSIEPDVVYAKRPHKEYAFESYICQRMFSGFQQKNFSVNSESATVMADDDTDTFFRQFLALKDMDPLDALDQRDYVTGGGHPRTAFYQAFLKLAKSIWILHKLAYSFDPAAKIFQVKKGSEFSDSYMESVVKNIH”, the “soluble on expression in E. coli” value is reported as “soluble”.
In the case of “MEESRADGRNPNQLRPFSCTRNPLDRAHGSARWAQGDTIVLAAVYGPKPGTRKGENPEKASIEVVWKPMTGQIGKQEKEYEMTLKRTLQSICLLTVHPNTTTSVILQVVGNDGSLLPCAINACCAALVFAGIPLKHLAVAIGCGVLEDGEVILDTNKAEEQQLKSFAHLVFPNSRKSASSKEPNQKEEDSERGLITSITHGVMSEEDYFSCIERGLAASSRISDFMRTTLQKQAPGDVLEHHHHHH”, the “soluble on expression in E. coli” value is reported as “soluble”.
